In paper PMC5509376 (PLoS Pathogens, 2017):

Target: T1, VPS10P domain of sortilin fused with GST (mouse, UniProt Q6PHU5 76-750)
T1 construct: also called GST-VPS10P; GST-tagged VPS10P domain of sortilin
T1 sequence (looked up): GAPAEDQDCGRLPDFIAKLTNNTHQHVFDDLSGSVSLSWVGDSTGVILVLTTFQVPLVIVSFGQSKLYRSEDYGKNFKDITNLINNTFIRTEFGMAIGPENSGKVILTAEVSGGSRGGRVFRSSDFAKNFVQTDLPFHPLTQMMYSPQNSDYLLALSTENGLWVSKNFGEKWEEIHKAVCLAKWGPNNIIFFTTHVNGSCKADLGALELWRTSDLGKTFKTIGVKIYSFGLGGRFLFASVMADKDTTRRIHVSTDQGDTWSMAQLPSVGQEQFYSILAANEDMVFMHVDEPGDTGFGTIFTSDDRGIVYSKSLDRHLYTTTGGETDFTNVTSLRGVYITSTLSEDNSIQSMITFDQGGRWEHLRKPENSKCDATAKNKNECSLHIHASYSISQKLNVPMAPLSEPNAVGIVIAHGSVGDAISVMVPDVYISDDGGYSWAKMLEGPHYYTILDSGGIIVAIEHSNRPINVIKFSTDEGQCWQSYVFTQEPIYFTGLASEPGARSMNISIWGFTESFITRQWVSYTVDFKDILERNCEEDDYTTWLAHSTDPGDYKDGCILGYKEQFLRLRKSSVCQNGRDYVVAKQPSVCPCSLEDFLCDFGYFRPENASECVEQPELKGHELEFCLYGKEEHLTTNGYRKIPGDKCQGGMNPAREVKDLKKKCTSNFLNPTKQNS
Assay: pull-down
Details: both partners purified

B1: His-tagged full-length recombinant PrP (natural protein)
chain: not shown
  binding result: binds
